Reference: patent US20080207498A1, “Methods for Treating Alzheimer's Disease” (priority 2005, published 2008)

Key:
[1] = target: Purified human C1q (Quidel Corp.) (human) (UniProt P02745); test: reverse ELISA: PAP without competitor on C1q-coated plate
[2] = target: Highly purified FcγIII; test: reverse ELISA: PAP without peptide on FcγIII-coated plate
[3] = target: Highly purified FcγIIa; test: reverse ELISA: PAP without peptide on FcγIIa-coated plate
[4] = target: Highly purified FcγIIb; test: reverse ELISA: PAP without peptide on FcγIIb-coated plate
[5] = target: Human wt tau protein (441 residues; Sigma-Aldrich) (human) (UniProt P10636); test: reverse ELISA: PAP without peptide on plate coated with human wt tau
[6] = target: Human wt β amyloid peptide 1-40 (amyloid precursor protein (APP) fragment 1-40; Sigma-Aldrich) (human); test: reverse ELISA: PAP without peptide on plate coated with human wt β amyloid peptide 1-40

Chain of Preformed immune complex of peroxidase and rabbit anti-peroxidase IgG (PAP complex) (P00433 31-338, one chain of several): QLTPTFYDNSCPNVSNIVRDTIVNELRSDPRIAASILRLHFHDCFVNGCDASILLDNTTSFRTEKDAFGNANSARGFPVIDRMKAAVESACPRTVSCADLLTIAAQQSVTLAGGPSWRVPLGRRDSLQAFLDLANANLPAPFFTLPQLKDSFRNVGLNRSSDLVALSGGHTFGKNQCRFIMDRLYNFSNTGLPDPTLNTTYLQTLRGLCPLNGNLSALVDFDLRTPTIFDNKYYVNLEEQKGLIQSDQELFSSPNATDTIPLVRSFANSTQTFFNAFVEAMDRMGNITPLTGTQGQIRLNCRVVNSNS
Chain of Human wt tau protein (441 residues; Sigma-Aldrich) (human) (P10636 other isoform, or with tags, fused parts or gaps limits assumed): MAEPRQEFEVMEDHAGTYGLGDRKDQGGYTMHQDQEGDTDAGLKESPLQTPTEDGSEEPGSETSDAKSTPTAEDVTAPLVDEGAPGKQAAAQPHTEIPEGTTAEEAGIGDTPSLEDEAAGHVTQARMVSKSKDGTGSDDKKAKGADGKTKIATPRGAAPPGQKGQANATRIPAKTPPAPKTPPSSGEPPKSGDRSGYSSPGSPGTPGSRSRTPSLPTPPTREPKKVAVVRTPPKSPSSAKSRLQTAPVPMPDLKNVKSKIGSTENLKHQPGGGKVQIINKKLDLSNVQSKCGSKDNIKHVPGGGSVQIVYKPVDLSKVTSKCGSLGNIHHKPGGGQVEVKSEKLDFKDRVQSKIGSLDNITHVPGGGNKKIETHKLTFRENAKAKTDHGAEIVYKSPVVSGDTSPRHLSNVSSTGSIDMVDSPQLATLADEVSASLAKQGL
Chain of Purified human C1q (Quidel Corp.) (human) (P02745 23-245 limits assumed, chain 1 of 3): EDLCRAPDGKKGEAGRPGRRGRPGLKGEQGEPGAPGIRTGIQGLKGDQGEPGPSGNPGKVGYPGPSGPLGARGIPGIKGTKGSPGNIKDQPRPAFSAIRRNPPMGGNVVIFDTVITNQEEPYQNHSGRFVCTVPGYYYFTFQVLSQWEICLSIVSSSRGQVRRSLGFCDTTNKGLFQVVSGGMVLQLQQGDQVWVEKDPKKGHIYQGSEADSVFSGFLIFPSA
Chain of Purified human C1q (Quidel Corp.) (human) (P02746 28-253 limits assumed, chain 2 of 3, further chain): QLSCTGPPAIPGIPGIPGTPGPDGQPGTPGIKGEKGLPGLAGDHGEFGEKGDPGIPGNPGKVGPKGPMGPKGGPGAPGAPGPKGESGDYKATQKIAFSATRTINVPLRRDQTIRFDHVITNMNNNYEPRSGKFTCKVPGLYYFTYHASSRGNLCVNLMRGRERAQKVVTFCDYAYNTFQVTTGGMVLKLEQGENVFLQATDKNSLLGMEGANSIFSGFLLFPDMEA
Chain of Purified human C1q (Quidel Corp.) (human) (P02747 29-245 limits assumed, chain 3 of 3, further chain): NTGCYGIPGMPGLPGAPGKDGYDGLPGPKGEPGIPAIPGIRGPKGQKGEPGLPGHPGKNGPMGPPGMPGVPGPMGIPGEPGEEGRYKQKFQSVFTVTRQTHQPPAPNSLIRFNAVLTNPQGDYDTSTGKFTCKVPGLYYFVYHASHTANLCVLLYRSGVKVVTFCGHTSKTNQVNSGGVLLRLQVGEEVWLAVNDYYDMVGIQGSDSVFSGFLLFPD

OD 405 nm [1]: 2.35 OD
OD 405 nm [2]: 1.59 OD
OD 405 nm [3]: 1.6 OD
OD 405 nm [4]: 1.39 OD
OD 405 nm [5]: 0.695 OD
OD 405 nm [6]: 3.28 OD
Substance: Preformed immune complex of peroxidase and rabbit anti-peroxidase IgG (PAP complex) (from UniProt P00433 31-338)
